# Source: patent publication US20070014736A1, “Methods of delivering corticotroph-derived glycoprotein hormone” (priority 2005, published 2007)
# B1: CGH: heterodimeric protein hormone comprised of alpha subunit GPHA2 and beta subunit GPHB5, recombinantly produced in CHO cells (protein)
# chain 1: QEAVIPGCHLHPFNVTVRSDRQGTCQGSHVAQACVGHCESSAFPSRYSVLVASGYRHNITSVSQCCTISGLKKVKVQLQCVGSRREELEIFTARACQCDMCRLSRY
# chain 2: ASSGNLRTFVGCAVREFTFLAKKPGCRGLRITTDACWGRCETWEKPILEPPYIEAHHRVCTYNETKQVTVKLPNCAPGVDPFYTYPVAIRCDCGACSTATTECETI
# Tested on: lipolysis in mice
# Experiment: Stimulation of lipolysis in vivo, serum glycerol and FFA
# Details: fasted mice, IP; CGH 300 μg/kg, CL 1 mg/kg
# Procedure: CGH, the β3-adrenoreceptor agonist CL 316,243 (CL), and saline vehicle were examined for stimulation of lipolysis in mice following an overnight fast. […] Lipolysis was assessed as the percent change in serum glycerol or FFA over the 2 hour period. The serum glycerol and FFA for the vehicle groups decreased by 7%±9% and 24%±15%, respectively. The serum glycerol for the CGH group increased by 57%±20%; p=0.0254, and the FFA levels increased 25%±5%; p=0.0188.
# C57 BL/6 male mice, age 19 weeks, were grouped to normalize weight (n=4 for each treatment; average group weight=37.8 g±0.4 g). Mice were housed individually for 18 hours prior to treatment, at which time food was withdrawn, with free access to water given. At approximately 8 a.m., the subjects were anesthetized with halothane and blood samples taken by retro-orbital eye bleed. The blood was allowed to clot, and the serum was separated by centrifugation and frozen for later analysis. Test substances were administered by IP injection in a volume of 0.1 ml, and the animals replaced in their cages for 2 hours with free access to water. At 2 hours, the mice were sacrificed and blood drawn by cardiac puncture.
# For measuring free fatty acids in serum, the method previously described for measuring free fatty acids in conditioned media was followed, with the following modifications. Wako reagents A and B were reconstituted to 2× the recommended concentration. 75 μl of Wako reagent A were added to 5 μl of oleic acid standard plus 5 μl of water. 75 μl of Wako reagent A were added to 5 μl of serum plus 5 μl of methanol (to mirror the oleic acid standard conditions). The 96-well plates were incubated at 37° C. for 10 minutes. 150 μl of Wako reagent B were added to each well. The 96-well plates were incubated at 37° C. for 10 minutes. The 96-well plates were allowed to sit at room temperature for 5 minutes. The 96-well plates were centrifuged in a Beckman Coulter Allegra 6R centrifuge at 3250×g for 5 minutes to remove air bubbles. The absorbance at 530 nm was measured on the Wallac Victor2 Multilabel counter.
# For measuring glycerol in serum, the method previously described for measuring glycerol in conditioned media was followed, with the modifications described below.
# Sigma reagent A was reconstituted to 0.5× the recommended concentration. 200 μl of Sigma reagent A were added to 10 μl of glycerol standard. 200 μl of Sigma reagent A were added to 5 μl of serum plus 5 μI of water. The 96-well plates were incubated for 15 minutes at room temperature. The 96-well plates were centrifuged in a Beckman Coulter Allegra 6R centrifuge at 3250×g for 5 minutes to remove air bubbles. The absorbance at 530 nm was measured on the Wallac Victor2 Multilabel counter.
molecule,measurement,value
B1,percent change (increase) in serum FFA over 2 hours,25%±5%
same,percent change (increase) in serum glycerol over 2 hours,57%±20%
